One block for each binder: values may come before it.
Key:
Human serum albumin [1] = target: T1, Human serum albumin (human, UniProt P02768 25-609); experiment: BLI (Octet) as in Example 1, His-tagged VHH, HSA
T1 construct: also called HSA

Monkey serum albumin = Monkey serum albumin (Monkey); experiment: BLI (Octet), cross-species albumin binding
mouse serum albumin = mouse serum albumin (mouse, UniProt P07724 25-608); experiment: BLI (Octet), cross-species albumin binding
Human serum albumin [2] = target: T1, Human serum albumin; experiment: BLI (Octet), cross-species albumin binding
Human CD16A = target: T2, Human CD16A (human, UniProt P08637 17-208, limits assumed); experiment: BLI (Octet) as in Example 1, His-tagged VHH, human CD16A
T2 construct: also called FcγRIIIa

[3] = target: T3, CD47 natively expressed on tumor cell surface (Jurkat, HL60 cells) (human, UniProt Q08722 19-323); experiment: flow cytometry on HL60 cells (express CD47 but not PD-L1)
T3 construct: whole, on cells; also called CD47 on the HL60 cell surface; CD47 on the Jurkat cell surface

T2 sequence (P08637 17-208 limits assumed): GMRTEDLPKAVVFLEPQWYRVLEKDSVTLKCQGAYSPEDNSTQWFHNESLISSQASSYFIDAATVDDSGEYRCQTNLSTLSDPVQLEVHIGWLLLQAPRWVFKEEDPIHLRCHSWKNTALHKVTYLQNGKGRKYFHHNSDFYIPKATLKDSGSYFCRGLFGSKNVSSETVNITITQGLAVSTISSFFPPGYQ

B3: CD16F1 (VHH)
VHH: EVQLVESGGGLVQPGGSLRLSCAVSGSLFSARVMGWYRQAPGKQRELVAAITSGVRTDYADSVKGRFTISRDNAKRAVYLQMNSLKPEDTAVYYCNVNLYNTGNYWGQGTQVTVSS
notes: not shown: C-terminal His-tag
- Kd (Human CD16A): 4.68 nM
- koff (Human CD16A): 0.000109 s⁻¹
- kon (Human CD16A): 23300 M⁻¹ s⁻¹

B4: 1518-HS5-GS15 (bispecific antibody)
chain: EVQLVESGGGLVQPGGSLRLSCAVSGSLFSARVMGWYRQAPGKQRELVAAITSGVRTDYADSVKGRFTISRDNAKRAVYLQMNSLKPEDTAVYYCNVNLYNTGNYWGQGTQVTVSSGGGGSGGGSEVQLLESGGGLVQPGGSLRLSCAASGRTFTTHAMGWFRQAPGKEREFVSAINWGGRTTYYADSVKGRFIISRDTGANTLYLQMNSLRAEDTAVYYCASNLDTYNVRAGTTNSWGQGTQVTVSSGGGGSGGGGSGGGGSEVQLVESGGGLVQPGGSLRLSCAASGGGRTFSNYALGWFRQAPGKEREFVAAISRSGGNINYADSVKGRFTISRDNFKNTVYLQMSSLRAEDTAVYYCAAHYLLLPSYISTSTNMYNYWGQGTQVTVSSAAAQVQLVESGGGLVQPGGSLRLSCAASGGGRTFSNYALGWFRQAPGKEREFVAAISRSGGNINYADSVKGRFTISRDNAKNTVYLQMSSLRAEDTAVYYCAAHYLLLPSYISTSTNMYNYWGQGTQVTVSSGGGGSGGGSEVQLVESGGGLVQPGGSLRLSCAASGGTFLTYSMSWVRQAPGKEREFVSSINWSGYMTYYADSVKGRFTISRDNSKNTLYLQMNSLRAEDTAVYYCAAARTAIAAKRSSEFDYWGQGTQVTVSSAAAEVQLVESGGGLVQPGGSLRLSCAASGGTFLTYSMSWVRQAPGKEREFVSSINWSGYMTYYADSVKGRFTISRDNSKNTLYLQMNSLRAEDTAVYYCAAARTAIAAKRSSEFDYWGQGTQVTVSS
notes: Multi-specific single chain antibody with the 15-residue linker (G4S)3 between the anti-HSA and anti-CD47 domains
- EC50 [3]: 8.4 nM

B5: CD16E11 (VHH)
VHH: QVQLVESGGGLVQPGGSLTLSCRASGFTFSNHAMSWVRQAPGKGLEWVSEISFNGHATRYADSLKGRFTISRDNAKNTLYLQMNTLKPEDTAVYYCRKGWNATPQIGERGRGTQVTVSS
notes: not shown: C-terminal His-tag
- Kd (Human CD16A): 3.02 nM
- koff (Human CD16A): 6e-05 s⁻¹
- kon (Human CD16A): 19900 M⁻¹ s⁻¹

B7: HS6 (VHH)
VHH: EVQLVESGGGLVQAGGSLRLSCAASGRIFHTYAVGWFRQAPGKERESVVIINWSSDHTYVAQSVKGRFTISRDRAKNTFYLQMNSLKPEDTAVYYCAVRRRLYGLRESDFDSWGQGTQVTVSS
notes: not shown: C-terminal His-tag
- Kd (Human serum albumin [1]): 0.498 nM
- koff (Human serum albumin [1]): 0.000829 s⁻¹
- kon (Human serum albumin [1]): 1.67e+06 M⁻¹ s⁻¹

B9: 1518-HS5 (CD16F1-L1-hHS5-L1-hA09-10-3-L3-hA09-10-4-L1-hPL16-L3-hPL16) (bispecific antibody)
chain: EVQLVESGGGLVQPGGSLRLSCAVSGSLFSARVMGWYRQAPGKQRELVAAITSGVRTDYADSVKGRFTISRDNAKRAVYLQMNSLKPEDTAVYYCNVNLYNTGNYWGQGTQVTVSSGGGGSGGGSEVQLLESGGGLVQPGGSLRLSCAASGRTFTTHAMGWFRQAPGKEREFVSAINWGGRTTYYADSVKGRFIISRDTGANTLYLQMNSLRAEDTAVYYCASNLDTYNVRAGTTNSWGQGTQVTVSSGGGGSGGGSEVQLVESGGGLVQPGGSLRLSCAASGGGRTFSNYALGWFRQAPGKEREFVAAISRSGGNINYADSVKGRFTISRDNFKNTVYLQMSSLRAEDTAVYYCAAHYLLLPSYISTSTNMYNYWGQGTQVTVSSAAAQVQLVESGGGLVQPGGSLRLSCAASGGGRTFSNYALGWFRQAPGKEREFVAAISRSGGNINYADSVKGRFTISRDNAKNTVYLQMSSLRAEDTAVYYCAAHYLLLPSYISTSTNMYNYWGQGTQVTVSSGGGGSGGGSEVQLVESGGGLVQPGGSLRLSCAASGGTFLTYSMSWVRQAPGKEREFVSSINWSGYMTYYADSVKGRFTISRDNSKNTLYLQMNSLRAEDTAVYYCAAARTAIAAKRSSEFDYWGQGTQVTVSSAAAEVQLVESGGGLVQPGGSLRLSCAASGGTFLTYSMSWVRQAPGKEREFVSSINWSGYMTYYADSVKGRFTISRDNSKNTLYLQMNSLRAEDTAVYYCAAARTAIAAKRSSEFDYWGQGTQVTVSS
notes: Multi-specific single chain antibody with the 9-residue linker G4SG3S between the anti-HSA and anti-CD47 domains
- EC50 [3]: 26 nM

More lines, now with the values ahead:

- Kd (Human serum albumin [1]): 2.89 nM
- koff (Human serum albumin [1]): 8.01e-05 s⁻¹
- kon (Human serum albumin [1]): 27700 M⁻¹ s⁻¹
B1: HS10 (VHH)
VHH: EVQLVESGGGLVQPGGSLRLSCAASGSTDSAYRMGWFRQAPGKEREFVSAINWSDGRTYYADSVKGRFTISRDNSKNTLYLQMNSLRAEDTAVYYCAADPDSRLYYTVPQNYDYWGQGTLVTVSS
notes: not shown: C-terminal His-tag

- Kd (Monkey serum albumin): 8.08 nM
- Kd (mouse serum albumin): 4.57 nM
- Kd (Human serum albumin [2]): 3.18 nM
B2: hHS10 (VHH)
VHH: B1 VHH
notes: also called humanized HS10; not shown: C-terminal His-tag

- Kd (Human serum albumin [1]): 0.568 nM
- koff (Human serum albumin [1]): 0.000583 s⁻¹
- kon (Human serum albumin [1]): 1.03e+06 M⁻¹ s⁻¹
B6: HS12 (VHH)
VHH: QVQLVESGGGSVQAGGSLRLSCAASGRTFISFSMGWFRQAPGKEREFVASITNSGSGILYGDSVKGRFTISRDNAKNTMYLQMNSLKPEDTAVYYCAAGTGAGRYRYASMFDYWGQGTQVTVSS
notes: not shown: C-terminal His-tag

- Kd (Monkey serum albumin): 11.6 nM
- Kd (Human serum albumin [2]): 0.817 nM
B8: hHS5 (VHH)
VHH: EVQLLESGGGLVQPGGSLRLSCAASGRTFTTHAMGWFRQAPGKEREFVSAINWGGRTTYYADSVKGRFIISRDTGANTLYLQMNSLRAEDTAVYYCASNLDTYNVRAGTTNSWGQGTQVTVSS
notes: also called humanized HS5; not shown: C-terminal His-tag

— patent US12723105 (BEIJING STARMAB BIOMED TECHNOLOGY, dated 2026)
